According to patent US20160223529A1 (UNIVERSITY OF QUEENSLAND, published 2016):

T1: TVMV-AI-ePDZ-Binder
T1 chain: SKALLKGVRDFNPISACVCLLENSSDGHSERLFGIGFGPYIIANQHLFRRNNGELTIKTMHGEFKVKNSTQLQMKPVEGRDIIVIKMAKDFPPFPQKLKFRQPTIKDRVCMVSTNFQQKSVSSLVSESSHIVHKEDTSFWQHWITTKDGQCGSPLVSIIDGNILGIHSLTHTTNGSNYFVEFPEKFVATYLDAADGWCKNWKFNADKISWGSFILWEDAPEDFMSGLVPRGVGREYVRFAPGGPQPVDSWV


Experiments:
[1] = biological target: T1, TVMV-AI-ePDZ-Binder; experiment: Protease activation assay: TVMV activity on a fluorogenic substrate (FIG. 5)
[2] = biological target: Calmodulin (Homo sapiens (Human), UniProt P0DP23 4-149); experiment: Protease activation assay: TVMV activity on a fluorogenic substrate at different calmodulin concentrations (FIG. 3)

| Binder | binding result [1] | binding result [2] |
| --- | --- | --- |
| ePDZ (designed binder) SGTSPELGFSISGGVGGRGNPFRPDDDGIFVTRVQPEGPASKLLQPGDKIIQANGYSFINIEHGQAVSLLKTFQNTVELIIVREVGNGAKQEIRVRVEKDGGSGGVSSVPTNLEVVAATPTSLLISWDASYYGVSYYRITYGETGGNSPVQEFTVPYSSSTATISGLKPGVDYTITVYAYSDYYGSHHYSPISINYRTSGC | binds | – |
| TVMV-AI-CalmodulinBinder (enzyme, also called TVMV based calmodulin sensor) SKALLKGVRDFNPISACVCLLENSSDGHSERLFGIGFGPYIIANQHLFRRNNGELTIKTMHGEFKVKNSTQLQMKPVEGRDIIVIKMAKDFPPFPQKLKFRQPTIKDRVCMVSTNFQQKSVSSLVSESSHIVHKEDTSFWQHWITTKDGQCGSPLVSIIDGNILGIHSLTHTTNGSNYFVEFPEKFVATYLDAADGWCKNWKFNADKISWGSFILWEDAPEDFMSGLVPRGVGREYVRFAPRWKKNFIAVSAANRFKKISSSGAL | – | binds |
